Data: article PMC4549301 (2015)

B1: GST–HCF-1rep1, wild type (HCF-1 residues 867–1071) [human] / Recombinant human O-linked β-N-acetylglucosamine transferase (OGT), wild type [human] (parent complex)
chain 1: PAVTTLVVKGTTGVTTLGTVTGTVSTSLAGAGGHSTSASLATPITTLGTIATLSSQVINPTAITVSAAQTTLTAAGGLTTPTITMQPVSQPTQVTLITAPSGVEAQPVHDLPVSILASPTTEQPTATVTIADSGQGDVQPGTVTLVCSNPPCETHETGTTNTATTTVVANLGGHPQPTQVQFVCDRQEAAASLVTSTVGQQNGSV
chain 2: MASSVGNVADSTGLAELAHREYQAGDFEAAERHCMQLWRQEPDNTGVLLLLSSIHFQCRRLDRSAHFSTLAIKQNPLLAEAYSNLGNVYKERGQLQEAIEHYRHALRLKPDFIDGYINLAAALVAAGDMEGAVQAYVSALQYNPDLYCVRSDLGNLLKALGRLEEAKACYLKAIETQPNFAVAWSNLGCVFNAQGEIWLAIHHFEKAVTLDPNFLDAYINLGNVLKEARIFDRAVAAYLRALSLSPNHAVVHGNLACVYYEQGLIDLAIDTYRRAIELQPHFPDAYCNLANALKEKGSVAEAEDCYNTALRLCPTHADSLNNLANIKREQGNIEEAVRLYRKALEVFPEFAAAHSNLASVLQQQGKLQEALMHYKEAIRISPTFADAYSNMGNTLKEMQDVQGALQCYTRAIQINPAFADAHSNLASIHKDSGNIPEAIASYRTALKLKPDFPDAYCNLAHCLQIVCDWTDYDERMKKLVSIVADQLEKNRLPSVHPHHSMLYPLSHGFRKAIAERHGNLCLDKINVLHKPPYEHPKDLKLSDGRLRVGYVSSDFGNHPTSHLMQSIPGMHNPDKFEVFCYALSPDDGTNFRVKVMAEANHFIDLSQIPCNGKAADRIHQDGIHILVNMNGYTKGARNELFALRPAPIQAMWLGYPGTSGALFMDYIITDQETSPAEVAEQYSEKLAYMPHTFFIGDHANMFPHLKKKAVIDFKSNGHIYDNRIVLNGIDLKAFLDSLPDVKIVKMKCPDGGDNADSSNTALNMPVIPMNTIAEAVIEMINRGQIQITINGFSISNGLATTQINNKAATGEEVPRTIIVTTRSQYGLPEDAIVYCNFNQLYKIDPSTLQMWANILKRVPNSVLWLLRFPAVGEPNIQQYAQNMGLPQNRIIFSPVAPKEEHVRRGQLADVCLDTPLCNGHTTGMDVLWAGTPMVTMPGETLASRVAASQLTCLGCLELIAKNRQEYEDIAVKLGTDLEYLKKVRGKVWKQRISSPLFNTKQYTMELERLYLQMWEHYAAGNKPDHMIKPVEVTESA

Variants of: B1
Experiment: in vitro HCF-1rep1-OGT binding assay (OGT pull-down, quantified immunoblot); in the presence of UDP-GlcNAc; read off a plot

Variant | screen value [log2 fold change]
chain 1 H155A | ~-0.5
chain 1 E156A | ~-1.1
chain 1 T157A | ~-3
chain 1 P151A | ~-0.7
chain 1 T154A | ~0.3
chain 1 P150A | ~-1.7
chain 1 C152A | ~-0.55
